Source: the DeepSol protein solubility set

Test: soluble on expression in E. coli; label from the status in PepcDB or PDB records

Row | Sequence | soluble on expression in E. coli
1 | MAHHHHHHMQQSSLVRRNVFHYTTVLTACTRAGQMDAAMMVFRQMKANKVKPNVYTYTTLINGCANAEKLDLALRIFAEMRLVEVPPNVKTMTALISVCSRCGQWKKGFQVLDQCEDLFIAPNALTYTAAMDGCRRAGVCTPAIALLEARMTDPSQVRPNEVTYNTVLGACAAAKDHKAALRVYARMVADGYEPIEYTRELLREVFRGTSLDGLADKLMVRVRTSKWEAYVPDSDPATALRAAQEGG | not soluble
2 | SQFVLQDLQDATLGSLLSSLMQHCDPPQRKYPLEKGTPPPWWPTGNEEWWVKLGLPKSQSPPYRKPHDLKKMWKVGVLTAVINHMLPDIAKIKRHVRQSKCLQDKMTAKESAIWLAVLNQEESLIQQ | soluble
3 | MSLGPYYINTHFLYGSEEKANKLLEFIDKEKENILKCPDRILEETMKNYQSDPIYRGLIDEMCDFIKNNIDVNEVDYISGGERRDWFFSPIIAKLLNKPHITIYKDLTTVVSSDGKTEELKELNGESVLHIADLITEASSYERAWIPAIKNNGGRIKWSVVVVDRKQGGAELLKSYDIKSFSMVDIDIGLFKRVLDMGLIDRGQFEMIEQYILDPKESMAKFLRKNEGHHHHHH | not soluble
4 | MSDPKPTRSQGDLAEMLEMLLDKGVVINADIAVSVGDTELLGIQLRAAVASFETAAQYGLEFPTGTDMKRVETAAGVSSDASDANSETQPETEPARETTDEHSAVSSPSSREE | not soluble
5 | MTGVVTASKGLNVRKEANTSSQIIGILNSGESVEIIGEENGFYKITYKGQEAYASKNYINIFDGNSLEHHHHHH | not soluble
6 | MSLKYAWIELHSRQWPVSLTCQVLGVSPSGYHARKARDVDTDRARRRISNDALLVHIKAVHAESKGEYGWPRVWKKLLAQGIRVSKDRVQQLMKLHGIRAKTKRRFKVTTDSNHSLPVAPDLLQRDFSPARPDQVWTMDITYIWTDEGWLFLTVILDLFSRQVVGWSMQPHMRTELVSDALRMAWFRRRPEAGLIVHSDRGSQYCSRDFQDLLKGYGMRSSMSRRGNCWDNAPTESLWGSLKRARILGQRFATRREAMDEVIDWLSFYNHSRLHSTLGYVSPMQFERDWYAAQNQRVAEGHHHHHH | not soluble
7 | AHHHHHHGSPDVYEPIMGAFSLARRLWKMIVEKKGLPTGDDVASLLENLGFERVCTGSGLAVFRNRFVIALLIPRENMIVVDFLSSSGELSDALELIAYYDKEIECYVVEILPSNELEYEENLGIEPVIIDGKTFELRSYPVLGDFKQGKDKVVLKIDREVYELWKESGKLDVCPVCGGHLRWKQGKALCTECGIEVVVDEEH | soluble
8 | MKVEQIYTGCLAQGAYYITSMGEAAIIDPLREITPYLERLKRDGVKLKYILETHFHADFVSGHLDLSRATGAPIVYGPTAKPGFDAIVAEDNQIFELGNVKIRVLHTPGHTMESSCFLLIDENGREAALFSGDTLFLGDVGRPDLAQKAANLTQEELAGLLYDSLYTKILPLSDDIIVYPAHGAGSACGKNMMQETVDSLGNQKRVNYALNQPGKEAFIASVIEGLLPPPAYFGGNVAMNKMGYDSIDNVMERGLSALSATDFEAIAKTSDALVLDTRAPGVFAQGFIPRSINIGLDGDFAPWVGTMIVDVKQPLLLVADPGREQEVITRLSRVGFDQVLGYLDGGFDTWNASGKEIDHVECITANEFAERFCPEESLVFDVRKESEYAAEHVEGAYSRPLAYINDWIQDIPRDRHFYLHCIGGYRSMIASSILLSRGYRNFTDIEGGFASIAQTGVPKTDYVCQSKVSKKLEHHHHHH | soluble
9 | MPLVVNVLSTPLNAQPTRTAGFTLPEMMLALSFGSLIALSTAQVLPKLSQQISVLQQHYRLELVMNQAMGAMEKDLRRAGFCHGKCQGEAITIEHYLGETAHSCLIVAYDLNCNGRWEGAKHQESEYFGYRLRNKALESQRGELNCHGRGWEKLFDPRDVTVTHFSVTPLSGQLFKLRLVGHKTGNPAIHHQVTYLIRGNNV | not soluble
10 | MRVTDFSFELPESLIAHYPQPERSRCRLLSLEGPTGALTHGTFTDLLDKLNPGDLLVFNNTRVIPARLFGRKASGGKIEVLVERMLDDKRILAHIRASKAPKPGTELLLGDDESIHATMTARHGALFEVEFNDPRPVLDILNAIGHMPLPPYIDRPDEDADRELYQTVYSEKPGAVAAPTAGLHFDEPLLAALREKGVEMAFVTLHVGAGTFQPVRVDTIEDHIMHSEYAEVPQEVVDAVLAAKARGNRVIAVGTTSVRSLESAAQAAKSDLIEPFFGDTQIFIYPGYQYKVIDALITNFHLPESTLIMLVSAFAGYQHTMNAYKTAVEQKYRFFSYGDAMFITYNPQAISERP | not soluble
11 | MGSDKIHHHHHHMSESEYKIADGSGKFLQAVKDGRRMKDAQWSKGRILLSNKRIVLAGSEGKRNLPLSEVQGLSGRHDVNQTVAKVGNYVSIRMTNESVMLVSLGDNTETFESKLYGALLDQTELQVKHPAVEGGVVTDEQFERARIKVDESELSVAMSNGSFVSVELDDVGSAEAASLEVNGDTKPVLKVEHTVNRDTSVQTYFATDSHTASILESLLTKEAEKSQGSVELSETEKRVLMALYSGVSSFEIPDFLGMDVDEVESIFERLIEVDVLEEVRKRREVTMKTRGRNIASEAINEE | not soluble
12 | MAKKGPKRHLKRLAAPVRWELPRKIHKFTVRPLPGAHPMSESLPLLLIVRDILKYADNAREAKKIIKMGKVLVDGRVRKEEKLPVGLMDVVSLPDANENYRVLFDRKGRIKLKPTENPDVKLCKIKNKTVIKGGHIQLNLHDGRNIVIKVSDPTKAEEDVYKTGDTLLISIPEQEIKAHIPFEVGKLAYITGGKHVGDFAKIVEIERRGIYPDIVTLENMDGEKFKTVKDYVFVVGDEEPIIKLLEHHHHHH | soluble
13 | ANVKLLLPYILKWEGGFVHDPADAGGATNKGVTIATWKRVGYDKDGDGDIDVEDLKLLTDDDVLNRVLKPFYWDRWKADLIESQKVANILVDWVWGSGKYGIVIPQRILGVQADGIVGNKTLQAVNSADPDELFESIFDARREFLEDITARSIKKYEDSIGRKATERELLRHTNKRFLRGWLNRLEDI | not soluble
14 | MSTTDKQVAIVGVGPRGISILERIAAALNTVSRPKQGLTIHLIEDAQMGAGNVWRTDQTRTLCMNTLAGAVTLFTEPGSTVSAPVVEGPLQFDWIRLLRGDEDLSGIPTKAIELFRTYPPAASVAEDFKEELAATVIQSNPSRALYGAYLRWAFDVALQLLPQWVKVEQHHARAIGIREDGDRDVITLDNSEMISADSTVLAVGWQTPAPNAEELSIAAALEENPDLVWVKPGNPVEQDASLIPAGEQVLVRGLGMGFFDIMALTTIDRGGIFHEDPSTRSGLRYEASGEEPHFVISSGRGYPYLPKSDYKSLPPGAKLARLKAVIAAINAQNRGVASINYDAEVWPAVARDAYEAYYETLDRVSPESIRTGLDKIVEIIDEVDVDKLPKALAAHTDDVFDLHAWEFPLAGINESVEALTARIADGMARDIRHAVTAWDSPLKSALWSISAARKPSSILGAEGRLTFESRRNRFAAVMAIGQMVGSGPPLFRTRELLALVDAGLAHFAGARPRLSVSDGQWQISSPTTGDTPLRSKVLVDAWMHNP | not soluble
15 | MLFQNVSIAGLAHVDAPHTLTSKEINGRLQPTYDRLGIKTDVLGDVAGIHARRLWDQDVQASDAATQAARKALIDAGIGIEKIGLLVNTSVSRDYLEPSTASIVSGNLGVGDHCVTFDVANACLAFINGMDIAARMLERGEIDYALVVDGETANLVYEKTLERMTSPDVTEEEFRNELAALTLGCGAAAMVMARTELVPDAPRYKGGVTRSATEWNKLCRGNLDRMVTDTRLLLIEGIKLAQKTFLAARQVLGWAVDELDQFVIHQVSRPHTAAFVKSFGIDPAKVMTIFGEHGNIGPASVPIVLSKLKELGRLKKGDRIALLGIGSGLNCSMAEVVW | soluble
16 | MSNFMVENQTEQVSIFLEDAINLITNYVNYHTLPSLLEETPAGNERYYKGLLASMRRLLVFCEEGQDACFVLLNSQPFRKTAAEKILYKIYHQVIAEFFSPKSDHWYENSRSAYTGKNSIVFQQTPPASLEQVMKSLEGKFQLMREELEYYETDYQTKMLHKY | not soluble
17 | MSLTTFIQLHLLTAYPAANLNRDDTGAPKTVVLGGATRLRVSSQSLKRAWRTSALFEQALAGHIGIRSGRIAREAATILIEKGIEEKKAIEWAAKIADYLGKAKNDKKPKDPLTNAETEQLVHISPAEFDAVKALAHQLAEEKRAPKEEDLALLRKDRMAVDIAMFGRMLANKPEFNVEAACQVAHAFGVSETIVEDDFFTAVDDLRQASEDAGAGHLGETGFGSALFYTYICIDKDLLVENLGGDEALANQTLRAFTEAALKVSPTGKQNSFASRAYASWALAEKGTEQPRSLAAAFYEPINGTRQLDVAVQRITTLRENMNTVYEQKTECASFDVMNKQGSMKDVLDFICAEGHHHHHH | soluble
18 | MQTKLSTWTPLNHQLSNAHVFEERRNLLGKWFEKWTDSQRKQVLQDFFSRCSAGQLKHLRQTLSSWVPEETLDFTTVLPRVISLYIFSYLDPRSLCRCAQVSWHWKNLAELDQLWMPKCLKLGWCITFTPTPFEQGVWKRQYIETVQELHISRPKVPVKEEFIVPDVKVIGSETEGSLPLTGHRDLLGLQGRSKNGNDLGKSAKGLPPWRDSDRHPTDTIRFNYLDNLHPGEHARKALLKTRQEDTIKAPSHSTYKLRKAKSLMFLSLDLSTAGKPSHNRPKWAARNLEALPADKDSIKRISQTSQWNAGIRPGPVRPPVPRLSKEGFRASQRSHRSPPTVTLFEGQP | soluble
19 | MQVEVGQIVNTHGIKGEVKVKSNSDFTDTRFQPGEVLTVNHQNHEEQLTVLSYRVHKGFHMLKFEGINNINDVEQYKGDYLYQERDHEDIELAENEYYYSDIIGSTVFDNDNQPIGRVINIFETGANDVWVVKGEKEYLIPYIADVVKEIDIENKTIRITPMEGLLDLEHHHHHH | soluble
20 | MGSDKIHHHHHHMQKTPALLSDIGNNEDASVYQISPDLALVQTLDFITPIVDSAYHFGAIAAANALSDVFAMGAEVINALNIVGFDTCNHDLNILKELLEGANDKVKECNALVVGGHTIESTELFFGLSVTGKVHPSKFIANNTSKIGDCIILTKPLGTGILSTALKAQMLNQKHLDIMLKNMIELNYKASQIALKFHPSAMSDVTGFGLLGHLKEMLNKNISFEIFESELPFLDGVKEYFNMGLIPAGAYKNLEFIKELTPDLNEEKLLLCDPQTSGGLLISISEKDSLECLKKLEDENIQAKIIAKVVNKQENDIIIS | not soluble
21 | VQVLRLGSVGPDVKLAQSLLNKIGYPVGAVDGIYGTRTRQAVIAFQRNNGLVADGIVGPATWSVFEQFLRGYAIYYVRPGDTLYNIAGRFYTSVNSIVTANPGINPNVINIGQRLVVPYGIDVVFTDIDYTYEIMERDIQGLKARYPFLETGVAGTSVLGRNLYYLRLGTGPRQVFYNAAHHAIEWITTVLLMKFAENFLKAYSTGSRIRGYNVREIWNQSSIYIVPMVNPDGVDLVLNGLSPTNPYYADLLRWNTTGRPFSQVWSANIRGVDLNRNYPASWEEAKAQEEALGIFGPGPTRYGGPYPLSEPESSAMVSFTRTHDFRLALAYHSQGRVIYWNYLNLAPPESLTIANAFARVSGYIVLDVPYEAAYAGYKDWFIQEYRRPGFTIEVGLGQNPLPISQFNTIYNDNEEILLLASLI | not soluble
22 | ADQRIKVAKPVVEMDGDEMTRIIWQFIKEKLILPHVDVQLKYFDLGLPNRDQTNDQVTIDSALATQKYSVAVKCATITPDEARVEEFKLKKMWKSPNGTIRNILGGTVFREPIICKNIPRLVPGWTKPITIGRHAHGDQYKATDFVVDRAGTFKIVFTPKDGSSAKQWEVYNFPAGGVGMGMYNTDESISGFAHSCFQYAIQKKWPLYMSTKNTILKAYDGRFKDIFQEIFEKHYKTDFDKYKIWYEHRLIDDMVAQVLKSSGGFVWACKNYDGDVQSDILAQGFGSLGLMTSVLVCPDGKTIEAEAAHGTVTRHYREHQKGRPTSTNPIASIFAWTRGLEHRGKLDGNQDLIRFAQTLEKVCVETVESGAMTKDLAGCIHGLSNVKLNEHFLNTSDFLDTIKSNLDRALGRQ | soluble
